T1: activin-A (UniProt P08476 311-426, [125I] label in the crosslinking assays (site not stated))
T1 construct: The ~14 kDa monomer implies the processed mature chain; Unlabelled protein was used in the luciferase assays; also called bA-bA
T1 sequence (looked up): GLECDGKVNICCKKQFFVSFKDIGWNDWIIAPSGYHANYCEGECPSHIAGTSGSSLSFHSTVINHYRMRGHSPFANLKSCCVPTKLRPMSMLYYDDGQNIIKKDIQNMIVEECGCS

B1: Cripto EGF1•2mCFC mutant (N69G, T72A, R88G, E91G, H104G, W107G) (receptor)
chain: FEFGPVAGRDLAIRDNSIWDQKEPAVRDRSFQFVPSVGIQNSKSLNKTCCLGGGACILGSFCACPPSFYGGNCGHDVRKEHCGSILGGTGLPKKCSLCRCWHGQLHCLPQTFLPGCD
modifications: C-terminal GPI anchor
B2: Cripto DEGF mutant (receptor)
chain: FEFGPVAGRDLAIRDNSIWDQKEPAVRDRSFQFVPSVGIQNSKEHCGSILHGTWLPKKCSLCRCWHGQLHCLPQTFLPGCD
modifications: C-terminal GPI anchor

What was measured:
activin-A [1] = target: T1, activin-A; assay: not described at this place
activin-A [2] = target: T1, activin-A; assay: activin crosslinking assays
Method: Cells were transfected with […] DNA per well with ratios of 0.5 mg TbRII/0.5 mg ALK5/3 mg Cripto unless otherwise indicated for [¹²⁵I]-TGF-b1 crosslinking or […] ActRII/1 mg Cripto/1 mg vector for [¹²⁵I]activin-A crosslinking. As necessary, empty vector was used to keep the amount of DNA transfected constant at […]. […] Cells were then rinsed in HDB, incubated in HDB containing 0.5 mM disuccinylsuberate (DSS) for 30 min on ice, rinsed in HDB and then solubilized in lysis buffer (TBS containing 1% NP-40, 0.5% deoxycholate and 2 mM EDTA) for 1 h on ice. Solubilized, crosslinked complexes were incubated for approximately 24 h at 4° C. with […] of either anti-FLAG (M2), anti-His or anti-myc antibodies. Immune complexes were precipitated using protein-G agarose and analyzed using SDS-PAGE and autoradiography.

Binder | binding result (activin-A [1]) | binding result (activin-A [2])
B1 | no binding | –
B2 | – | no binding

— patent US20110009319A1 (RESEARCH DEVELOPMENT FOUNDATION, published 2011)
